Reference: patent US20090282582A1, “ENVIRONMENTAL STRESS RESPONSIVE PROMOTER AND METHOD OF TISSUE-SPECIFIC GENE EXPRESSION USING THE SAME” (RIKEN, priority 2006, published 2009)

B1: Promoter of RAFL05-18-I12: environmental stress responsive promoter DNA, SEQ ID NO: 2, upstream of At2g47770 (homolog of benzodiazepine receptor) (nucleic acid, listed as Arabidopsis thaliana)
DNA: ACCATGGCACCTGAAATACGTAAGGATACAAGAAGAGATATCATCACTGAATTCACTAAAATCACTCCCATCATAAACAGACAAATCAAAACCAAAATATTGTTCATTAACATCGTAAATGGACAACGCTTGACAACGTCTACAAATACTTGATGAAAAGAGATAAGAAATAAGTCTTCATTTATACCACATCAGTCTTCACGTAGATGATCAAGACGATCCCCAGATTGACAATGTAGAGAACACCAAAAAGAATCTGCAAAATGTAAGAGAGTAGAATTGAGACAAATGAAGCGATGGATGGATCAAATTCCGCAGCTAATCCAAAGATAGGAGATTCAAAGAGAGGGAATTGCAAGCACCTGAGCAGGGTAGACTTCCCCTCCAGTTAAGTTCTGCACTGCAGAGTAAACATAGAGGAAACCTGCTGGATAAACCAATGGCCCTGTATCGCCTTTCAAGTTCCCATAGTCTCTCTCTCCCCCGAGAAACCCACTAACCTGCCCCAATTAGATAAATTTCACTTAAAGACTACTAGTTTACTTTGAAGAAACCACAGTTGACCATTGACACTTACCTGTGACATGTAAGCATCCCAATCGATCTTCGTGTCTGTTAAAGGCAAATGACGAAATTTGGTTTAAAACCTATGCAAATGCACATTTCGAGGGATACGCAAGCAAAAAAAAAAAGGAGGTAAATAGCTCTCACATGGAACATAGGCGATAATAAGTGCGACTAGGATTGCATCAGCAAGAATTAGCGCGAATGCGAATGGAACTGCAGGTTTTTTGAATAGATCGGATCGATTCGTCTCCTTCCCCAGCCGACGGCTACGAGAAGCTCTCAAACTCGCCGGTGATGAGGCGCCCGCCATGAAAACAGAGCAAATCGCATCAGCGTCTAGCCAACGCCGCGTAACAGACAACTACTTCCATATTACTACTCTTCTAATTAGCCCAAATTAAATGAGCCTATTGGGCTTCTTGTCTTAGTCGGTGTAGAGCCCAATTGTTGTTTTATTTTTTAATAATGCAAAAGTATTAAGCGATAAATAAATAAGCATCGCAATCGTCCCAAAACTGTGTGTATGCATCAGACATGAGCATATAGAGTAAGCACGTGTCCACACTTTTTCACAAAGTTATCTAAAAACAAAAAACAATTAATTAGCATTCGACGTGTACATATCACTCGCCACGTGTACAAGAGCCTTGGCCTTTTTGCTTCTTCTTCTTGTCTATTAATATCATCTCCTGATTATACTCTCTTTTGACCAAGCTGCTTCTTCTCCATCTATCCAACATCTCAAATCTCAGTAATCTTGTTCCTTCGATTCTGTTTTGGACGTTTGTA
B2: Promoter of RAFL06-07-B19: environmental stress responsive promoter DNA, SEQ ID NO: 4, upstream of At3g11410 (AHG3 gene) (nucleic acid, listed as Arabidopsis thaliana)
DNA: CCCGAACTTAACCCAAATGCCCACCTTTAATTATTCAAAACCAAAAAAGAAGTGTTTGATGCTGAGGTTTGAACTCATCAGATACACGTAACTATTTTCCAATTTATTTTCGTTTATGTGCATTTCAGAATTTCAAGCATAAATATACTCTTATTGTTTAAACATTTCAAATTGCATGTGTGAAATAATATCAGAGTTAGAATATATGTTAATCTTCTCTTCTCCTAGATTCAGTTAGATACGTTTCTATCTTCTTTTAGGCAACATCTCTTGTACAAATAGTCTCTTTGGCAATTCAATACAATCAACCTTTTACGATATATATATTTGTTATTTCTTGTACAAATAGGATCAAAATTGTTATTTCTGAAGCAAATTTTCTTTAGTTTGGATGTCAATTATATCCTCGATTAATATGTAATCACGGAACGGATTCACGATGCGTTATTTTAGAAGCAAATTTATACTTGATAGTACGTTCAGAGGCATCGCTTTTGTACAAATTGAAGCGGGTTTGTTCAATATTTAAAATAACACAGGAAACATTCAAATGTATTATTGATGTTGCTTAGGTTTGTGAAATGATATGAACCATATCGTATATATTACTAGATTTTTCTTATATGTTTTAAGGGTAGTGGGGCTGACCTATCATTCTGTTTGGCATTACCAATCAGACTATCAGAGTATTCACCATTCAGGATTCCATAACTAGAAAAAGAAGGGGTTTACATTTTCTCATACTGTATAATTTTCTACTATCAGAGATTTTATCGATTACATTAATCTCATAGTGATTATTCTGATTTATAAAAAAGTTGACAAAATAATTAAAACCAGTATTTTATAACAAGATTGTCTCTCTCCCATGGCCATTATTTTGACCTCTGACTTATTTAAATCTTAATTAACAGCATAATACTGTATTAAGCGTATTTAAATGAAACAAAATAAAAGAAAAAAAGAACAAAACGAAAGAGTGGACCACATGCGTGTCAAGAAAGGCCGGTCGTTACCGTTAAGGTGTGTCGAACTGTGATTGGGCCACGTTAACGGCGTATCCAAAAGAAAGAAAGGGCACGTGTATAGATCTAGGAAAAAAGAAAGAATGGACGGTTTAGATTGTATCTAGGTACCAGGAAATGGAACGTCACACCAAACGGTACGTGTCGGATCCTGCCCGTTGATGCTGACGGTCAGCAACTTCCCCTTATTCATGCCCCCCTGCCCGTTAATTACGTGTAACCCTTCCATGCGAAAATCAAACCCTTTTTTTTTTTTGCGTTCTTCTTCAACTTTTCTTTTTAAATCAAACCTTTTCTTTTTAAAATCACATTGCATTTCCTAACGCTCAACAAAATCTCTCTCTACTAATATCTCTCTCTCTCTCTCTCTATTGTTGAAGAAGACTCATAATCGGAGATTGTTTGTTTTTGGTTTGCTCTGTAAATTGGAGAAGTTTTGTTAGAGATCAA

Key:
[1] = tested on: Arabidopsis thaliana (columbia ecotype) plant body; test: full-length cDNA microarray analysis of gene expression levels after environmental stress application; details: in vivo
Method: In this example, the gene expression levels at the time of application of various types of environmental stresses were analyzed using microarrays. Specifically, the microarrays described in Seki et al., “Monitoring the expression profiles of 7000 Arabidopsis genes under drought, cold, and high-salinity stresses using a full-length cDNA microarray,” Plant J. 31: 279-292, 2002, were used, and analysis was carried out in accordance with the method similar to the method described therein. Various types of environmental stresses were applied to a plant body under the following conditions. Specifically, low-temperature stress application was carried out by introducing a plate containing a plant body into a low-temperature chamber (4° C.). Dehydration stress application was carried out by capturing the plant body with forceps while refraining from damaging the plant body, roughly removing moisture from the plant body on a Kim Towel, placing the plant body on another plate, placing the plate in a clean bench while leaving the lid open, letting it stand for 2 hours, and then closing the lid. Salt stress application was carried out by dispensing a mixture of MS medium (containing 1% sucrose, 0.1% agar, and 1 mM luciferin) with 250 mM NaCl to the roots of the plant bodies (200 μl per plant body) using a Pipetman. ABA stress application was carried out by dispensing a mixture of MS medium (containing 1% sucrose, 0.1% agar, and 1 mM luciferin) with 100 μM ABA to the roots of the plant bodies (200 μl per plant body) using a Pipetman. As a plant body to which environmental stress is to be applied, Arabidopsis thaliana (columbia ecotype), which had been cultivated on a germination medium containing Murashige and Skoog Salt, 3% sucrose, and […] for 3 weeks, was used. Cultivation conditions were determined so as to maintain the temperature in the chamber at 22° C. with a 16-hour light period and an 8-hour dark period. Total RNA was extracted from plant bodies after environmental stress application or from plant bodies to which no environmental stress had been applied using the TRIZOL Reagent (Life Technologies), and mRNA was extracted using the mRNA isolation kit (Militenyi Biotec Auburn). In accordance with the method described in the above article, mRNA samples were reversely transcribed in the presence of Cy3 dUTP or Cy5 dUTP (Amersham Pharmacia). Microarray analysis was carried out using cDNAs obtained via reverse transcription. Data obtained via microarray analysis were analyzed using the Quantarray Version 2.0 (GSI Lumonics).

[2] = tested on: transgenic Arabidopsis thaliana plant body (luciferase reporter gene); test: luciferase assay of promoter::LUC transgenic plants after environmental stress application; format: in vivo; details: for Tissue allowing specific induction: summary over stress types
Method: Specifically, promoter regions were isolated from these genes, transgenic plants in which luciferase reporter genes were to be expressed under the control of such promoters were prepared, and tissue specificity of the promoters was inspected via luciferase assay.
In this example, DNA fragments containing promoter regions of the genes identified in Example 1 were recovered via PCR.
The nucleotide sequences of the amplified DNA fragments were determined in accordance with a conventional technique to confirm that mutagenesis, such as substitution or deletion, was not introduced thereinto. After the absence of mutagenesis was confirmed, the recovered DNA fragments were introduced into the vector for promoter analysis (i.e., a vector prepared by introducing the Gateway recombinant sequence (tradename: Gateway Vector Conversion System, Invitrogen) and the luciferase reporter gene into the pGreen vector (Plant Molecular Biology 42: 819-832, 2000)) using the Gateway recombination system to construct a recombinant vector.
The recombinant vector prepared in (1) above was introduced into a plant via Agrobacterium infection. When a gene is introduced via Agrobacterium infection, a process of infecting a plant with Agrobacterium containing a plasmid comprising the target gene construct is necessary. This process was carried out via vacuum infiltration. Specifically, a plant body of Arabidopsis thaliana that had been grown in soil comprising vermiculite and an equivalent amount of pearlite was soaked in a culture solution of Agrobacterium containing the recombinant vector prepared in (1). The resultant was placed in a desiccator, suctioned with a vacuum pump to 65 to 70 mmHg, and then allowed to stand at room temperature for 5 to 10 minutes. The pot was transferred onto a tray, covered with a wrap, and kept moistened. The wrap was removed on the following day, the plant was allowed to grow in that state, and seeds were then harvested.
Subsequently, seeds were sown on MS agar medium to which antibiotic hygromycin has been added in order to select an individual having the recombinant vector prepared in (1). Arabidopsis thaliana that had been grown in this medium was transferred to a pot and allowed to grow therein. Thus, seeds of transgenic plants to which the recombinant vector prepared in (1) has been introduced were obtained.
The seeds of the transgenic plant lineage prepared in (2) were sowed on MS agar medium. The plant body 10 days after sowing was used for luciferase assay.
At the outset, 1 mM luciferin (containing 0.01% Triton-X) was sprayed over the entire plant body 5 times. After the plant body was allowed to stand in the dark for 5 minutes, luciferase luminescence was assayed using ARGUS (assay after treatment for 0 hours). Subsequently, various types of environmental stresses were applied (see below). Low-temperature stress application was carried out by introducing a plate containing a plant body into a low-temperature chamber (4° C.). Dehydration stress application was carried out by capturing the plant body with forceps while refraining from damaging the plant body, roughly removing moisture from the plant body on a Kim Towel, placing the plant body on another plate, placing the plate in a clean bench while leaving the lid open, letting it stand for 2 hours, and then closing the lid. Salt stress application was carried out by dispensing a mixture of MS medium (containing 1% sucrose, 0.1% agar, and 1 mM luciferin) with 250 mM NaCl to the roots of the plant bodies (200 μl per plant body) using a Pipetman. ABA stress application was carried out by dispensing a mixture of MS medium (containing 1% sucrose, 0.1% agar, and 1 mM luciferin) with 100 μM ABA to the roots of the plant bodies (200 μl per plant body) using a Pipetman.
Luciferase luminescence was assayed 2, 5, and 10 hours after the above various types of environmental stresses had been applied using the ARGUS system (Hamamatsu Photonics). […]

Molecule | Environmental stress type to which the promoter responds [1] | activity to induce gene expression ([2]; 5 hours after dehydration stress application) | Tissue in which specific induction of expression is realized ([2]; Dehydration stress) | Tissue in which specific induction of expression is realized ([2]; Dehydration stress, listed as promoter of RAFL05-18-I12) | Tissue allowing specific induction [2] | Tissue in which specific induction of expression is realized ([2]; ABA stress (100 μM ABA)) | Tissue in which specific induction of expression is realized ([2]; ABA stress (100 μM ABA), listed as promoter of RAFL06-07-B19) | Tissue in which specific induction of expression is realized ([2]; Dehydration stress, listed as promoter of RAFL06-07-B19) | tissue in which expression is induced ([2]; dehydration stress applied for 5 hours) | tissue in which expression is induced ([2]; dehydration stress applied for 10 hours) | tissue in which expression is induced ([2]; dehydration stress applied for 10 hours, listed as promoter of RAFL06-07-B19)
B1 | Dehydration and salt | strong activity | Stem and leaf tissue and root tissue | stem and leaf tissue and root tissue | Stem and leaf tissue and root tissue |  |  |  |  |  | 
B2 | Dehydration, salt, |  | Stem and leaf tissue and root tissue*^1 |  | Stem and leaf tissue and root tissue | Root tissue | root tissue | stem and leaf tissue and root tissue | stem and leaf tissue and root tissue | leaf tissue and root tissue | lowered activity to induce gene expression in stem tissue and root tissue but to induce gene expression in leaf tissue
